Test system: MS2 coat protein
Test: apparent KD of MS2 coat protein; higher = weaker reporter binding
Conditions: Eterna round: R107
Outline: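 With or without constant ligand, designed RNA switches in 100 mM Tris-HCl pH 7.5, 80 mM KCl and 4 mM MgCl2 were titrated with SNAP-549-labelled MS2 coat protein. Concentrations went up in twofold steps from 0.7 or 1.5 nM to 3 µM. The switches had been transcribed on-chip from Illumina sequencing clusters, and apparent KD is the per-design median of normalised cluster binding-curve fits.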

[1] = input ligand: theophylline 20 uM
[2] = input ligand: theophylline 2 mM
[3] = input ligand: tryptophan 2.4 mM

Sequence	apparent KD of MS2 coat protein (input ligand: arginine 13.2 mM)	apparent KD of MS2 coat protein [1]	apparent KD of MS2 coat protein [2]	apparent KD of MS2 coat protein [3]	apparent KD of MS2 coat protein (input ligand: none)
CACGCACGAUCGGCCGCCACUCAUGUAGCUUACAUGAGGAUCACCCAUGUAUUUUCUUUCUUAUAGAGGACCGGGAUCGUGCGUG [#04 Same State - Tryptophan B]	0.021 µM	0.0282 µM	0.0245 µM	–	–
GAUCUGUCGGGUGAUACCAGCCUCGGCACAUCUCGUGCCGAACAUGAGGAUCACCCAUGUGGCCCUUGGCAGCACAUGACAAAUC [Regebece]	0.064 µM	0.652 µM	–	1.05 µM	–
AAAAGAGGUGGAAGGAGCGGGAGACAUGAGGAUCACCCAUGUGAAGUAACGAAAGGUACAGCCCAGGUAGGUCGCCAUGUCGAAA [qxqamullin]	0.0206 µM	0.0735 µM	0.0404 µM	0.0328 µM	0.0317 µM
GACCGAUUAUAGCGCGAUUGUCUUGUGGAAGGAGCGCAGAGGGCUGCAGGUAGGUCGCCACAUGAGGAUCACCCAUGUCAGGAUA [Ananvediri]	0.0305 µM	0.0534 µM	0.0358 µM	0.0309 µM	0.0202 µM
AUGCAUAGCACGGCCGCCACUCAAAUUAAACAUGAGGAUCACCCAUGUAACAUGGAUAAAAUAAAGAGGACCGGGUGAAAUGCAA [JR_SSTryptoB_Sub010]	0.026 µM	0.0362 µM	0.0337 µM	–	–
CGAUAUGGGACGGCCGCCACUAUUAUGUAACAAAAUAAACAUGAGGAUCACCCAUGUACAUGGGAUAGGACCGGGUCCUAUAACG [#22 Same State - Tryptophan B]	0.0296 µM	0.0425 µM	0.0462 µM	–	–
CGCAACCAACAUGAGGAUCACCCAUGUGAAGGAGCGCCGAAGAAGGCAGGUAGGUCGCACAUGAAUAAAUCAUGUAAAAGGUUGC [MAT - Exclusion Arginine A - Mod of Eli - D19]	0.0177 µM	0.0645 µM	0.0712 µM	0.0409 µM	0.0514 µM
GCAUGUUGGUGGUUUCUGCGAAGGCGGAAUCGAGGACCGGUACGGCCGCCACUCGGCGACAUGAGGAUCACCCAUGUGGUUAGGA [Exclusion - Tryptophan A (Freestyle 9)]	0.0421 µM	0.221 µM	0.461 µM	0.208 µM	0.462 µM
UUCAGCUAGUCGGCCGCCACUAUCUGAGGAUCACCCAGGUAAUCCUAACACUGCUUCGGCAGUGGUAGGACCGGGACUAGCUGAG	0.00818 µM	0.0263 µM	0.02 µM	0.0106 µM	0.0145 µM
GGUGGCGGGACUGAUACCAGCCACCACCGAUAGACCACAUGAGGAUCACCCAUGUUGGGUGGCCCUUGGCAGCAGUCUUGCUGCU [#1 Same State - Theophylline B Attempt #13 (HarryS)]	0.0641 µM	0.409 µM	–	0.586 µM	–
GAGACGUCGGGAAGGAGCGCAUCCAAACCACACAUGAGGAUCACCCAUGUAUAAAUAUGCAUGCAGGUAGGUCGCCCGGUGUCCA [Xegeisge]	0.0499 µM	0.12 µM	0.114 µM	0.0861 µM	0.0857 µM
ACAUGAGGAUCACCCAUGUUCCUCGCCGAUACCAGUGAAGAAGAACGCCCUUGGCAGCGGAAAGAGUAUUUUGGAGAUGAGGUAC [6.X]	0.0725 µM	0.134 µM	–	0.124 µM	–
CCUAACCGAUCGGCCGCCACUGACCGGUACCUCUUCGAAACCCGCCACAUGAGGAUCACCCAUGUCAGGACCGGGAUUGCACAGG [Inxeus]	0.0144 µM	0.023 µM	0.0178 µM	0.0381 µM	0.0172 µM
CUAGAUGGAAACGUCUGGACGCACAAGCGACGAGGACCGGUACGGCCGCCACUCGAAGAGUGGUGGACAUGAGGAUCACCCAUGU [Design 4 MOD]	0.0365 µM	0.0874 µM	0.078 µM	–	–
UUAAUCAAUAUAGAAAACUAUAUUGCAGAAGGAGCGUGAUAAAACACAGGUAGGUCGCUGAAGGGAACAUGAGGAUCACCCAUGU [AstrosSSArgA#5]	0.0248 µM	0.0325 µM	0.0263 µM	0.0262 µM	0.0234 µM
UCGUGUAUAACGGAUACCAGUGAGAAGGAUACAUGAGGAUCACCCAUGUGAGUUGAUGUACACCCUUGGCAGCUGUAUAUAUCUA [llpmullin]	0.0583 µM	0.0819 µM	–	0.0733 µM	–
CAAAAUGCGGCGGCCGCCACUCAGCUCCGUGUGGUUGGUCAUCUUAACAUGAGGAUCACCCAUGUGAGGACCGGGCCAGCGAGUG [theeternabot_exclusion_MS2_Trp_B_38]	0.0133 µM	0.0196 µM	0.017 µM	–	–

Sequence	apparent KD of MS2 coat protein (input ligand: arginine 13.2 mM)	apparent KD of MS2 coat protein [1]	apparent KD of MS2 coat protein [2]	apparent KD of MS2 coat protein [3]	apparent KD of MS2 coat protein (input ligand: none)
AGGAGACAUGAGGAUCACCCAUGUCCAGAUACCAGAAUGUCUUUGUUCCCUUGGCAGCUGUGGAAAUCUGACCUGCCUCGGUCUG [theeternabot_sameState_MS2_Theo_A_31]	0.0146 µM	0.0179 µM	–	0.0152 µM	–
UAUCCACAUGAGGAUCACCCAUGUUAGGAAGGAGCGGUGGAUGCACCAGGUAGGUCGCCUAGCUGAGGACUGUCGGUGGAUUCGU [Exclusion - Arginine A (Freestyle 21)]	0.0565 µM	0.0921 µM	0.131 µM	0.0949 µM	0.0866 µM
GGGAGAUGAAUAGAAUGAGAUGACACAGAAGGAGCGUGAAUUAACACAGGUAGGUCGCUGACAACAUGAGGAUCACCCAUGUAUU [Same State Arginine A GF3]	0.0181 µM	0.0213 µM	0.0195 µM	0.0189 µM	0.0152 µM
GUACCACAGUCGGCCGCCACUAAGUUGUAUUCCAGCAGGACGAAACAUGAGGAUCACCCAUGUCCUAGGACCGGGACUUCCGUCG [theeternabot_sameState_MS2_Trp_B_41]	0.0169 µM	0.0252 µM	0.0256 µM	–	–
UCGAUGGUACCCGAUACCAGCAAUACAUCACAGACCUGAUACAUGAGGAUCACCCAUGUGUGCCCUUGGCAGCGGGUCCUGAAAA [theeternabot_exclusion_MS2_Theo_B_25]	0.0175 µM	0.0285 µM	–	0.0206 µM	–
GAUGAACAUACUGAUACCAGUGUACUGACAUGAGGAUCACCCAUGUUGGGUUUUGUUGUACACCCUUGGCAGCAGAAUGUUUAUC [AstrosExyTheB#7]	0.0462 µM	0.0665 µM	–	0.0554 µM	–
ACACGGAAUGAUGGAUCACCUCGUUAAUAACGAGGACCGGUACGGCCGCCACUCGAAAACCGUGACCUGUACGAAAAGUGCAGGA [TrypAS 15 #SwitchBubble #HomemadeMS2 #StaticStrem #MS2Early]	0.0273 µM	0.314 µM	0.488 µM	0.0761 µM	0.0336 µM
AAAAUCCUACUUGAGGAUCACCCAGGUGAAGGAGCGCCCGAAAGGGCAGGUAGGUCGCACCUGAGGAUCACCCUGGUAACCUAAA [ArgEX 9 #DoubleMS2 #OpenEnded]	0.14 µM	0.171 µM	0.211 µM	0.178 µM	0.164 µM
CCUAUCCAGUCGGCCGCCACUGAAAACAGUGGGUGAACAUGAGGAUCACCCAUGUAGGAUUUCCACAGGACCGGGACUGUAUAGG [Ex Tryptophan B 24]	0.0794 µM	1.3 µM	1.23 µM	0.223 µM	0.933 µM
GGGUGCGGCACGGCCGCCACUGCGGUGGUGUGACAUGAGGAUCACCCAUGUUGUCAUGCGGCCCUUAGGACCGGGUGCCGUGCCC [#1 Exclusion - Tryptophan B Attempt #13 (HarryS)]	0.0395 µM	0.0609 µM	0.0624 µM	0.0438 µM	0.0337 µM
UGAGAGGGCAGAAGGAGCGACAUGAGGAUCACCCAUGUCUCCCGUUAUGGGAGUUCUUUAGGUCAGGUAGGUCGCUGGCCUCUCA [#1 Exclusion - Arginine B Attempt #9 (Inspired by Omei)]	0.054 µM	0.135 µM	0.146 µM	0.0995 µM	0.117 µM
GCAUCCUAGUCGGCCGCCACUGCAUGUUGGCAGUGCUGCAACAUACAUGAGGAUCACCCAUGUUGCAGGACCGGGACUAGGAUGC [(Trp1)-(MT2)''-(T1)'-(MT2)'-(Ms2)-(Trp2)_Design1]	0.0238 µM	0.0287 µM	0.0252 µM	0.0228 µM	0.0243 µM
CCCAACAUGAGGAUCACCCAUGUUCCGGGUCGAGGACCGGUACGGCCGCCACUCGGUAUGAUGGGUGUGCAGCGUAUCUGCACCA [theeternabot_sameState_MS2_Trp_A_22]	0.0309 µM	0.0611 µM	0.0684 µM	–	–
AAAAGACAUGAGGAUCACCCAUGUAGAGAUACCAGAUGCAUGGACAUCCCUUGGCAGCUCGUCACUUUCUAUAUUUUCCAGACGC [theeternabot_sameState_MS2_Theo_A_37]	0.031 µM	0.0591 µM	–	0.0591 µM	–
AAGGUGAUCCGUGAUACCAGCUCAACAUGAGGAUCACCCAUGUAAGCCUGGAAACAGGCGAGCCCUUGGCAGCACGGUUGCCAAG [(M)'-(Theo1)-(Ms2)-(Theo2)-(M'')-(T2)'_Design1]	0.0386 µM	0.138 µM	0.0254 µM	0.163 µM	0.165 µM
ACAUGAGGAUCACCCAUGUCAGGGCACGAUACCAGCUGAUCCGGUGGCCCUUGGCAGCGUGACGUGUGGUCAUGAGGAUCACCCG [wsmullin]	0.283 µM	0.642 µM	0.638 µM	0.464 µM	0.52 µM
CCCACAAGCACGGCCGCCACUAUAUUAAUUACUGUCCUAGAACAUGAGGAUCACCCAUGUUAAUGUAGGACCGGGUGCGGGCCCG [theeternabot_exclusion_MS2_Trp_B_7]	0.00921 µM	0.0115 µM	0.00946 µM	–	–

From the supplement of paper PMC9170038
